Test results as given in patent US7063946B2, “Methods, reagents, kits and apparatus for protein function analysis” (Meso Scale Technologies, LLC., priority 2001, dated 2006).
“And” between values parts separate entries of the source, which are not always exact repeats. Equal entries are not always repeated.

Assays:
[1] = target: T1, IkB peptide (SEQ ID NO: 1) (Homo sapiens, UniProt P25963); test: 96-well screen for phosphopeptide binding proteins, 7-spot IPR plates; conditions: two steps of normalization, top 9 clones
T1 construct: two phosphoserines in the DSGLDS motif (chemical modification); purchased New England Peptide, Fitchburg Mass; host or cells: chemical synthesis
Protocol: (§1) A screen was conducted using 7-spot IPR plates. The 7 spot NPT IPR plates are described in more detail in copending Provisional Application No. 60/301,932 (entitled “Assay Plates, Reader Systems and Methods for Luminescence Test Measurements”, filed on Jun. 29, 2001, hereby incorporated by reference) and particularly in the description of Plate Type D in Example 6.1 (NPT IPR plate) and U.S. application Ser. Nos. 10/185,274 and 10/185,363, filed Jun. 28, 2002, each hereby incorporated by reference. These plates consist of a 96 wells with 7 zones (spots) for the immobilization of proteins or other reagents. Each spot was coated with BSA conjugated to either a single phosphopeptide or multiple phosphopeptides.
(§2) The plates were prepared essentially as described in example 12. The seven spots supported, respectively, the following BSA conjugates IkB, pY992, pY1068, pY1148, Myc, “A”, and “6-P”. “A” refers to a conjugate of BSA with multiple peptides: IkB, pY1148, Myc which were then coupled to BSA. “6-P” refers to a conjugate of BSA with the following multiple peptides: IkB, pY1148, pY992, pY1068, Smad3C.
(§3) For the assay, 4 ul from TnT reaction product described above were added to the coated plate containing 50 μl of binding buffer supplemented with 50 ng/well Ru-Streptavidin. The binding reaction was allowed to proceed at room temperature for 1 hour with constant shaking. […] The ECL signals were measured using an imaging plate reader (IPR). The raw data from the IPR reader was then normalized using two steps of normalization. The first round was based on the 50 lowest values for a given specific spot. These 50 lowest values were averaged and divided into each signal for that spot to generate a signal value which could be compared readily between the peptide-conjugate spots. This was then followed by a second round of normalization using the lowest normalized value for a spot within a well to divide the signals from the other spots. This method provides a means to reduce the signals from proteins which bound non specifically to all the spots within a well. […]

[2] = target: T2, Myc peptide (SEQ ID NO: 4) (Homo sapiens, UniProt P01106); test: as above; conditions: two steps of normalization; top 9 clones
T2 construct: phosphothreonine (T58) and phosphoserine (S62) (chemical modification); purchased New England Peptide, Fitchburg Mass; host or cells: chemical synthesis
Protocol: as §1, §2, §3

T2 sequence (P01106 with tags, fused parts or gaps limits assumed): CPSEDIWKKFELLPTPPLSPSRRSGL
T1 sequence (P25963 with tags, fused parts or gaps limits assumed): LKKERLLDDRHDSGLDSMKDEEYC

normalized ECL signal, IkBa spot [1]: 12
normalized ECL signal, IkBa spot ([1]; βTRCP positive control): 23
normalized ECL signal, Myc spot [2]: 4 and 8
Substance: 3491843: IMAGE clone protein: βTRCP1 [compound 3491843]
